{"source": "the DeepSol protein solubility set"}
{"assay": "soluble on expression in E. coli; label from the status in PepcDB or PDB records"}
{"sequence": "MSLENKMPKDFFWGNSTSSMQTEGGWNEGGKGPSVYDVNTAGRSAKDWQVTNDNYHHYSQDLDLMKEMNMNMYRFQISWSRIVPDGDGEFNEEGIAFYNRLIDDLLARGIEPMICLYHFDMPLNLAEKYNGFLSRKVKEAFVRFGQEMMKRFADKVKYWIVFNEHNLYFADGFEHYSGVLKKELTLSDMYTVFHHTMLAHCELTQFLHENFEAKIGGMLATTEIYPATFSPKDNLYLRKFDEFYNRNLCDVYAFGHYSHEVMTYVKNQNIQMDFQKGDEEILKNGISDFISFSYYRSILLDASQLTENDAPNSYLTKGMKLNPLLEHNQWDWSIDPEGFRRILSRLYNEFGLPVFPIENGIGQSEIWDGKTKIADDLRIFYHQKHLEAMKKAIFTDGVEVMGYLGWGLIDIPASSGAIDKRYGAVYVDPKSHKRIPKKSFHWFKNVFASNGDHLDEGHHHHHH", "soluble on expression in E. coli": "not soluble"}
{"sequence": "MADVLERVTKIIVDRLGVEETEVVPAASFKEDLGADSLDVVELVMQLEDEFEMEISDEDAEKIATVGDAVTYIESHL", "soluble on expression in E. coli": "not soluble"}
{"sequence": "KEATWVTDKPLTLKIHMHFRDKWVWDENWPVAKESFRLTNVKLQSVANKAATNSQEQFNLMMASGDLPDVVGGDNLKDKFIQYGQEGAFVPLNKLIDQYAPHIKAFFKSHPEVERAIKAPDGNIYFIPYVPDGVVARGYFIREDWLKKLNLKPPQNIDELYTVLKAFKEKDPNGNGKADEVPFIDRHPDEVFRLVNFWGARSSGSDNYMDFYIDNGRVKHPWAETAFRDGMKHVAQWYKEGLIDKEIFTRKAKAREQMFGGNLGGFTHDWFASTMTFNEGLAKTVPGFKLIPIAPPTNSKGQRWEEDSRQKVRPDGWAITVKNKNPVETIKFFDFYFSRPGRDISNFGVPGVTYDIKNGKAVFKDSVLKSPQPVNNQLYDMGAQIPIGFWQDYDYERQWTTPEAQAGIDMYVKGKYVMPGFEGVNMTREERAIYDKYWADVRTYMYEMGQAWVMGTKDVDKTWDEYQRQLKLRGLYQVLQMMQQAYDRQYKN", "soluble on expression in E. coli": "soluble"}
{"sequence": "MGSDKIHHHHHHMSSSAPIDYAALADRIHTWGRELGFQQVGITDTDLAAHERYLERWLAAGYHGEMHFMAKHGSKRTRPEELVPGTLRVVSVRMDYLPPEVETTKVLGQPERAYISRYALGRDYHKLIRKRLATLAKRIEDEVGAYGYRAFVDSAPVMERALAQKAGLGWFGKNAMLLNPQAGSLFFLGELYTDLPLPVDAPFDSEHCGKCSRCQTACPTGAIVDDKVIDSRRCISYLTIELAGSIPEEYREAMGNRVYGCDDCQLVCPFTRFTRVSREDDFAPRHDLDRASLVRLFAWSEEEFLARTEGSAIRRIGYERWLRNLAIGLGNAPWSDQVESALRARLAYPSDLVREHVRWGLEQQRRKRERRIASDVDAPAAPERSA", "soluble on expression in E. coli": "not soluble"}
{"sequence": "GPLGSSYSMEQVEGITSEYIVKNADMFAVAVSLVSGKILYISNQVASIFHCKKDAFSDAKFVEFLAPHDVSVFHSYTTPYKLPPWSVCSGLDSFTQECMEEKSFFCRVSVGKHHENEIRYQPFRMTPYLVKVQEQQGAESQLCCLLLAERVHSGYEAPRIPPEKRIFTTTHTPNCLFQAVDERAVPLLGYLPQDLIETPVLVQLHPSDRPLMLAIHKKILQAGGQPFDYSPIRFRTRNGEYITLDTSWSSFINPWSRKISFIIGRHKVRVGPLNEDVFAAPPCPEEKTPHPSVQELTEQIHRLLMQPVP", "soluble on expression in E. coli": "soluble"}
{"sequence": "MDVGKRLKEVREMYGLSQRELAKRVGLTNSTISMIERDAVSPSISSLKKILEGVSLTVTEFFTLEIPTESQVVFKKDTLVDVGSDGVELHLVGTPQPDSKLAFLIERYQPGSSTGKDMITHIGEEAGTVIEGSIEITVAGRSFKLTKGDSYKFSTSLPHKFKNTSKKVCKIISAHTPPSF", "soluble on expression in E. coli": "not soluble"}
{"sequence": "MSESFAELFEESLKTLNLQAGSIITGVIVDIDYQARWVTVHAGLKSEALIPLEQFYNDAGELSINVGDEVHVALDSVEDGFGETKLSREKAKRAECWIVLEAAFAAEEVVKGVINGKVKGGFTVDVNGIRAFLPGSLVDVRPVRDTTHLEGKELEFKVIKLDQKRNNVVVSRRSVLEAENSAEREALLESLQEGQQVKGIVKNLTDYGAFVDLGGVDGLLHITDMAWKRIKHPSEIVNVGDEIDVKVLKYDRERNRVSLGLKQLGEDPWVAIKARYPESTRVTARVTNLTDYGCFAELEEGVEGLVHVSEMDWTNKNIHPSKVVQVGDEVEVMVLDIDEERRRISLGIKQCKSNPWEDFSGQFNKGDKISGTIKSITDFGIFIGLDGGIDGLVHLSDISWNEVGEEAVRRFKKGDELDTVILSVDPERERISLGIKQLESDPFSEYVQENDKGAIVKGVVKEVDAKGAIITLANDIEATLKASEISRDRIEDARNVLKEGEEVEAKIISVDRKSRVIQLSIKSKDVEDEKEAIQSLRDKPAASDIAAGPTTLGDLLRAQMEKQN", "soluble on expression in E. coli": "soluble"}
{"sequence": "MDRSFCDAGCGVGSLSLPLAQRGAQAVYASDISAKMVEEARERASQIPNLNNIQLEVSDLASLSGRYDTVICLDVLIHYPESDAAAMLSHLCSLAEQRVLVSFAPKSPVLNVLKRIGQFFPGASKTTRAYQHSETAIAAALAANGFQVQRRAFNKAPFYFSLLLEAVRTALEHHHHHH", "soluble on expression in E. coli": "soluble"}
{"sequence": "MGEPVIEAQISAGFDSDSGFRHAFSRLAGQPPSNLRGRELLKVDWLQTPIGVMLAVADLEHHHHHH", "soluble on expression in E. coli": "not soluble"}
{"sequence": "MSTASGITMASMSTYAILGCGSVGHAVAEELVEEGKDVLILDADEGRVEALRDQDLNAQQADICETDVAQTVADRDVVLIMSPDVNANAEAVRNIRESGGEQFIVARADDPVSADDLTELGADVVINPSAVIADSALRALETGELEYKASQLGDVIDGTEERMAILIHRSPDPDSIASAAALRAIAASRDVDADIIYEGEIGHQENRAFVNLLGIELTSNEDVNLDEYDTFALVDVAKGGEPAVESVDIVIDHYEHEHELEHDAAFSDIRPNISATSTILTKYIQELDLNLDQSVATALLYGIRAETLDFKRDTTPADLTAAAYLYPFADHDTLEQVESPSMSPETLDVLAEAIRNREVQGSHLVSNAGFIRDRDALAQAAQHLLNLEGITTTAVFAIADDTIYLAARSKDIRMNIGKVLSDAFGGMGETAGHSTDASVEIPLGIFTGLDTSDDNRDTLLELTEEAVKRKLFEAMGVDSSSSESSNGN", "soluble on expression in E. coli": "not soluble"}
{"sequence": "MGSDKIHHHHHHMGDDILSQEEVDALLRGVSGEDEDDDGGQDAQGVRGYDIGRQERIVRGRMPTLEIINERFARNLRIGLFNFLRRNAEISVGPVRVQKYSEFIRNLVVPTNLNLVHVKPLRGTGLLIFDPDLVFLIVDNLFGSDGRYHVRVEGRDFTPTEQRIIHRLLEVVFTECQKAWEPVYPIEFVYLRSEMNTQFANIATPTEVVVAMTFHIELGAGGGDFHICLPYSMVEPIRDLLSSTMQADRTEVDNRWVNLMTHQVQAAEVELVASLAHAKVTLGQILNLKNGDVVMIEIPERVEADVSGIPVFEASYGTVQGRYALKVEKILAGTNEFLESPGEHEQ", "soluble on expression in E. coli": "not soluble"}
{"sequence": "MAHHHHHHMRRIQLAFLTKLWQRRNCGSFNERALVQRTCEHIYCSSSAREQLRQLIHESSVENALRHLGEFSNDVSVLKGSAWLGQLSKAPDVVGRIAVILPQFEKWYVARKAPEKVTMHEPWDWYPKARFMRRRFVFHYGPTNSGKTHAALETLVKAKSGVYCAPLKALAAQVWKRIDASVPCDLLIGDERRFGGGAEHVSCTVEMTPIDYQIDVGVIDEVQMIADRDRGWAWTRALLGLPAREIHLCGEERAIPLIRKVLYKTHELQRLEVVPHKRLVPLEVSPSLDGDLRRIENGDTLVCFSRRAIFDMKKKLENISGMAPHCIYGSMPFSVREAQADAFNNGTRDVIEGKSGKKHVLISTDAIAYGLNMSIERIIFTSMRKFDGKQMVTLPQATILQVAGRAGRFGVLRSHKFGRCTTLDSNDFAVLCEAVNSRLPSLQKAGLLPTAEVLELYIRLREAEEGGRVTENNLASFYQRMREFSECCQASDLFFPCDLSRSLLQVAKELEAVTDLSLSDRILFCYVPLNDRGKETYDLLRAFGHDHAAGRHVVLRIDEEFERLVKQCDLVCSGDTRRAHQVLTRMEHLYRVAEMYCWLAWRFGKTFVHLETATALKERAALKMEEILQHL", "soluble on expression in E. coli": "not soluble"}
{"sequence": "MSKKVAIVGAGPGGLATAIRLAGLGYQVEIFEAAERVGGRMRGFEVDSYAFDTGPTILQLPHLYKELFEEAGLNFADYVQLKRLEPYTRLKFWDGTQLDITSDLQSFKTQLATLRSDLPLAFDRWYSEHIRKYELGYKPYLAGPARSIFGYLRPDELMKFLSFRPWENLYQHFWRFFQDERLVYALSYPSKYLGMHPTVASSVFSLIPFLEFSQGVWHPVGGFRALAQGLANAAQDLGVKIHLHSPVHQIWIEQGQVRGLELADASRHQFDTVVINADFAYAVRHLLPTSARGRYTDNKLGQMQFSCSTFMLYLGINRRYEDLPHHQIYLSDNIRRLERPWVDDSALDETDPPFYVCNPTIIDPSNAPAGHSTLFVLVPIPNTSYAVDWDIKQKSYTDFILKRLHLLGYHNIEQHIVTQSCYTAQSWLDDYRVHLGAVFNLSHNLTQLGPFRPPIRSENIAGLYWIGGAVHPGSGLLTILEASRSAAGFIHQDFASTGSLEHHHHHH", "soluble on expression in E. coli": "not soluble"}
{"sequence": "MDNELTSRPDSIMDTEPTTLPDSAMDTKPTNLPDFPSTSQEPVSRRTRSRTLSDNSNAVWKRERRSRETSQESESRLRMDWERKKEKRASMSEEEKAEMKYKKRVWMKKKRNEVAKTHDTSSVANPNYLGSMRCVCKNCNARFFQGIHFFKV", "soluble on expression in E. coli": "not soluble"}
{"sequence": "MGSDKIHHHHHHMQGAQSTVDTQSESLNADRSASVDGHPIIVGAFINMYQQLNKDNLFLLRQVYRDDICFRDPMHHVEGIEALTDYFANMYQNVTHIEFDIKEVVISADKQQAALYWTMSYSHPKLSKGQLINVEGMSQLKFSDKIFSHRDYFDLGQMLYEQVPFLGGLIGLLKNRVTK", "soluble on expression in E. coli": "not soluble"}
{"sequence": "KIDDGTELKLKGEKLRYVSRGGLKLEKALAVFNLSVEDMITIDIGASTGGFTDVMLQNGAKLVYAVDVGTNQLVWKLRQDDRVRSMEQYNFRYAEPVDFTEGLPSFASIDVSFISLNLILPALAKILVDGGQVVALVKPQFEAGREQIGKNGIVRESSIHEKVLETVTAFAVDYGFSVKGLDFSPIQGGHGN", "soluble on expression in E. coli": "not soluble"}
{"sequence": "MGSDKIHHHHHHMPQDVMTANHVSPSNDAAAPSALDLARNQRLSLMDLLSVSEALNAAGQQAAAAELYKTWVAFNDNNPTIHLAYFNYAVMLNQLGDRAGAVQAFRACLKANPEFAPGHINLGRALEDAGLIGHAVEQWSHYAEVTKNVDAETIGHRHMTLQNMGRVLEGAGKLEEAETALLQAFELRPELPEAGQHWASLRQRQCKWPVLAPSNHISPRKMLDAMSSLTLSCYADDPMFQLAKAYRLSKTLIGARPDLSRFPRRSPKQKSGTGQRLRVGYLSSDLRDHAVGFALCEVLELHDKDSLEVFAYYCGNVRGTDSTQERIKAAVHCWRDIHGVDDATAASQIIADEIDILIDVNGYTKDARAKIFAYRPAPVIVSFCGYPGSMGSPFHQYLISDGYMIPPENEIYYSEKVLRIACDQPLDRKRPVAARPSRADVGLPEDAFVYASFNGMQKITENCFARWMTILSETPGSLLWLLTGDDDVNQRLRDLAEKSGVASERLVFAPKAQNPQHIARIGLADLFLDTFPYGAHSTASDAITSGLPVLTMYGKTFAARFCGSIVTAAGVPEMICSSPEDYVARAIGFERDRQSLLEVRESIARQRETSVLRDIPALARRLEELFWQMQGECERGETPVPDLSNLDIYYEAGAEALLENIEFEDEQSYRERYLKKLRQWHDYAPIPYDRRLWQNPDN", "soluble on expression in E. coli": "not soluble"}
{"sequence": "MGSDKIHHHHHHVQLSENVLLLGNRHFNYFLVGKKEAAIIECGVSGGVYSFQKQWEKLPQKPEVKYLVAMHAHFDHVCGIPALQKMFPAAVLLASSPAEAVLKKAKIMENFFAQDEKMLDLLADEGIIPRGLQSPNVTEIALDKLIAEGDEIKLGGDLNIKVLDAPGHSPCSLACYLPAEQVMFISDACGFQISDEDIFPVFFQAYDIYLETIKRLMSYPSKLLAIPHERIWTGRNIDAFYRRALSSAEQAFNIIRDLLDQGWEDEKIEKELFARYYKGSLKIYTPENIQQCVQILLRRVKEKL", "soluble on expression in E. coli": "not soluble"}
